Key:
Aβ11-29 = target: T1, Aβ11-29
T1 sequence (peptide): EVHHQKLVFFAEDVGSNKG

Chain of Aβ1-20 (peptide, as listed by the source): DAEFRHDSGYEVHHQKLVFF

hydrolysis activity: remaining HPLC peak of the substrate (Aβ1-20): 49.6%
hydrolysis activity: remaining HPLC peak of the substrate (Aβ11-29): 72%
Binder: SKGQA [ANA-SA5]

From patent publication US20190023741A1
